Measured values reported in patent US5547935A (Chiron Corporation, priority 1994, dated 1996).

How the values were obtained:
[1] = molecular target: T1, EGF receptor on fixed A431 cells (Homo sapiens, UniProt P00533); assay: Receptor affinity: binding to fixed A431 cells; settings: 1 nM, 2 hr at 37° C.
T1 construct: Confluent A43 1 cells were fixed in 96-well microtiter plates using 0.05% formaldehyde; endogenous in cells; host or cells: A431 cells, formaldehyde-fixed
Procedure: Confluent A43 1 cells were fixed in 96-well microtiter plates using 0.05% formaldehyde for 10 min at room temperature, then washed 3× with 200 μL PBS with 0.1% bovine serum albumin (BSA).
The wells were then washed 3× with 200 μL of PBS/0.1% BSA, detached, and counted in a gamma counter.

[2] = tested on: Human foreskin fibroblasts; assay: Mitogenicity: 3H-thymidine incorporation; type: cell-based
Procedure: Mitogenicity was assayed substantially following the method described by D. J. Knauer et al, J Biol Chem (1984) 259:5623-31.
Human foreskin fibroblasts were obtained and frozen at the thirteenth passage. Thawed cells are trypsinized, pelleted, and resuspended in a medium containing DMEM, 5% FBS, 1 mM sodium pyruvate, 300 μg/mL L-glutamine, 100 U/mL penicillin, and 100 μg/mL streptomycin. The cells are counted using a hemocytometer and 0.4% trypan blue. The cell concentration is adjusted to 1×10^-5 cells/mL using the same medium, and dispensed onto microtiter plates (100 μL/well). The plates are incubated for 5 days in a tissue culture incubator.
EGF muteins prepared in Example 1 and native sequence EGF are dissolved to make 100 μg/mL solutions. These solutions are used to make serial dilutions of 20, 10, 5, 2.5, 1.25, 0.625, 0.3125, 0.15625, 0.078125, 0.0390625, 0.0195, and 0.00975 ng/mL. Ten μL of each dilution is added to a microtiter plate well, and the plates returned to the incubator and incubated at 37° C. for 18 hours. […]
The well contents are then solubilized using 0.3 N NaOH (50 μL/well) for 30 minutes, and transferred to scintillation vials. Scintillation fluid (Ready-Solv EP, 4 mL) is then added to each vial, and the vials counted for 1 min with a 0-1,000 (^3 H) window in a Beckman LS3801 counter.

B1: .phi.EFG: EGF with N-terminal flag extension, additional sequence DWKDDDDK (protein)
chain: DWKDDDDKPQHWSCPEGTLAGNGNSTCVGPAPFLIFSHGNSIFRIDTEGTNYEQLVVDAGVSVIMDFHYNEKRIYWVDLERQLLQRVFLNGSRQERVCNIEKNVSGMAINWINEEVIWSNQQEGIITVTDMKGNNSHILLSALKYPANVAVDPVERFIFWSSEVAGSLYRADLDGVGVKALLETSEKITAVSLDVLDKRLFWIQYNREGSNSLICSCDYDGGSVHISKHPTQHNLFAMSLFGDRIFYSTWKMKTIWIANKHTGKDMVRINLHSSFVPLGELKVVHPLAQPKAEDDTWEPEQKLCKLRKGNCSSTVCGQDLQSHLCMCAEGYALSRDRKYCEDVNECAFWNHGCTLGCKNTPGSYYCTCPVGFVLLPDGKRCHQLVSCPRNVSECSHDCVLTSEGPLCFCPEGSVLERDGKTCSGCSSPDNGGCSQLCVPLSPVSWECDCFPGYDLQLDEKSCAASGPQPFLLFANSQDIRHMHFDGTDYGTLLSQQMGMVYALDHDPVENKIYFAHTALKWIERANMDGSQRERLIEEGVDVPEGLAVDWIGRRFYWTDRGKSLIGRSDLNGKRSKIITKENISQPRGIAVHPMAKRLFWTDTGINPRIESSSLQGLGRLVIASSDLIWPSGITIDFLTDKLYWCDAKQSVIEMANLDGSKRRRLTQNDVGHPFAVAVFEDYVWFSDWAMPSVMRVNKRTGKDRVRLQGSMLKPSSLVVVHPLAKPGADPCLYQNGGCEHICKKRLGTAWCSCREGFMKASDGKTCLALDGHQLLAGGEVDLKNQVTPLDILSKTRVSEDNITESQHMLVAEIMVSDQDDCAPVGCSMYARCISEGEDATCQCLKGFAGDGKLCSDIDECEMGVPVCPPASSKCINTEGGYVCRCSEGYQGDGIHCLDIDECQLGEHSCGENASCTNTEGGYTCMCAGRLSEPGLICPDSTPPPHLREDDHHYSVRNSDSECPLSHDGYCLHDGVCMYIEALDKYACNCVVGYIGERCQYRDLKWWELRHAGHGQQQKVIVVAVCVVVLVMLLLLSLWGAHYYRTQKLLSKNPKNPYEESSRDVRSRRPADTEDGMSSCPQPWFVVIKEHQDLKNGGQPVAGEDGQAADGSMQPTSWRQEPQLCGMGTEQGCWIPVSSDKGSCPQVMERSFHMPSYGTQTLEGGVEKPHSLLSANPLWQQRALDPPHQMELTQ
B1 was tested, and the Affinity [1] was 32 percentage of control (EGF) and the Mitogenicity [2] was 56 percentage of control (EGF).
